Entries after “also recorded” stand apart in the source; their conditions may differ.
Legend:
Format in all cases: in vivo
[1] = Toxicity in RAG-2-/- deficient mice; conditions: highly susceptible to endotoxin shock
[2] = tested on: cardiac inflammatory and fibrogenic markers; experiment: Chronic Chagas cardiomyopathy (CCC) mice, transcripts by qPCR
Protocol: FIG. 3A depicts in vivo experimental design, groups, treatment and timeline for the infective and anti-inflammatory effects of sPDNF. C57BL/6 mice (7 per group) were injected intraperitoneally with T cruzi Colombian strain (8×10^2 per mouse) and, four months later, intravenously with PBS (vehicle) or sPDNF (1 mg/kg body weight) at 0, 3, and 24 hours, weekly for 3 weeks. Mice were sacrificed 50 days after the first set of IV sPDNF treatment. FIG. 3B are images of heart (ventricle) paraffin-embedded, sectioned, and stained with H&E. Arrows indicate foci of inflammatory infiltrates, which were abundant in sham-treated (IV PBS) CCC mice and rare in IV sPDNF-treated CCC mice. Similar histology was found in other tissue sections and in a distinct set of sPDNF-treated and PBS-sham mice.
FIG. 5A is a graph showing transcript expression for inflammatory cytokines in hearts of the infected mice, as assessed by qPCR for the indicated transcripts, which were normalized to HPRT and made relative to uninfected vehicle-treated mice. Values for IFN-λ were reduced by 3-fold; **, p<0.01. FIG. 5B is a graph showing transcript expression for inflammatory cell markers in hearts of the infected mice, as assessed by qPCR for the indicated transcripts, which were normalized to HPRT and made relative to uninfected vehicle-treated mice. Values for CD8, and CD4 were reduced by 15-, and 1.5-fold, respectively; **, p<0.01, ***, p<0.001. FIG. 5C is a graph showing transcript expression for inflammatory cytokines in hearts of the infected mice, as assessed by qPCR for the indicated transcripts, which were normalized to HPRT and made relative to uninfected vehicle-treated mice. FIG. 5D is a graph showing percent reduction of cardiac inflammatory markers of mice chronically infected with T cruzi, using data from FIGS. 5A-5C. Baseline represents mean transcripts of uninfected mice. FIG. 5E is a graph showing expression of TSG-6 transcripts in heart and liver of T cruzi infected mice. Heart (ventricles+atria) and liver of mice (5 per group) infected acutely (25-day post injection) (Acute) or chronically (6-months PI, CCC, same as in FIG. 3) with T cruzi Colombian were assessed for TSG-6 transcript by qPCR and plotted relative to uninfected mice set at 1.0; **, P<0.001. […] is a graph showing TSG-6 serum levels assessed by ELISA (MyBiosource) in mice uninfected (Un-Inf) or bearing CCC and injected IV with vehicle PBS or sPDNF following the protocol described in FIG. 3. Bars represent the average (±SD) of three mice per point; two separate experiments, **, P<0.01.

[3] = tested on: IL1-Ra, TSG-6 and COX-2; experiment: Intravenous sPDNF into naïve mice, anti-inflammatory factor transcripts in heart and liver
Protocol: FIG. 2A is a graph showing stem cell marker expression in mice administered sPDNF. One set of three wild type C57BL/6 mice received intravenous (IV) PBS without (PBS) or with sPDNF (2 mg/kg) at 0, 3 and 24 hours (sPDNF 1d), and a second set IV sPDNF (2 mg/kg) for 6 days (sPDNF 6d). Mice were sacrificed 3 hr post injection and the indicated stem cells markers were quantified in the ventricles by real time PCR, and normalized to HPRT; *, p<0.05, **, p<0.001, ***, p<0.0001; SCF, stem cell factor, ns, not significant. FIG. 2B is a graph showing stem cell marker expression in MyD88^−/− mice administered sPDNF. TLR-deficient MyD88^−/− mice (C57BL/6 background) (2/group) were injected IV with a single dose of sPDNF (2 mg/kg), sacrificed at 3 hours post-injection, and the indicated cardiac stem cell markers assessed by qPCR. Data were normalized to HPRT and made relative to vehicle-treated controls (set at 1.0 and represented by the dashed line); **, P<0.01; and ***, P<0.005. FIG. 2C is a graph showing stem cell marker expression in mice administered sPDNF at various time points after injection. […] Cardiac Sca-1 and SCF transcripts were quantified by qPCR; **, P<0.001; ***, P<0.0005. FIG. 2D is a graph showing quantitation of Sca-1 expression in various organs of mice administered sPDNF. C57BL/6 mice (3 per group), average of two experiments) were injected IV with sPDNF at 4 mg/kg body weight or PBS, sacrificed 3 hours later, and Sca-1 mRNA quantified by qPCR in the liver, heart, colon and bone marrow (*, P<0.05, **, P<0.001; ns, not significant; dotted line represents Sca-1 mRNA of vehicle-treated mice set at 1.0, data are representative of 2 experiments. […] FIG. 2F is a graph showing quantitation of expression of inflammatory markers in mice administered sPDNF. Wild type and naïve mice (5 per group) were injected IV with a single dose of sPDNF (4 mg/kg), sacrificed 3 hr post-injection, and the L-1Ra, TSG-6, COX-2, and IDO transcripts quantified in the heart and liver. […]

[4] = tested on: cardiac Sca-1+ cells; experiment: Intravenous sPDNF into naïve mice, Sca-1 staining of heart sections
[5] = hearts of infected (CCC) mice, FIG. 5B

B1: sPDNF: N-terminal short-form of T cruzi PDNF that contains Trk-binding sites, recombinant; amino acids 1-588 of SEQ ID NO: 2; JR-100 is the commercial name (protein, listed as Trypanosoma cruzi)
chain: MGKTVVVASRMFWLMFFVPLLLAICPSEPAYALAPGSSRVELFKRKNSTVPFEDKAGKVTERVVHSFRLPALVNVDGVMVAIADARYDTSNDNSLIDTVAKYSVDDGETWETQIAIKNSRVSSVSRVVDPTVIVKGNKLYVLVGSYYSSRSYWSSHGDARDWDILLAVGEVTKSTAGGKITASIKWGSPVSLKKFFPAEMEGMHTNQFLGGAGVAIVASNGNLVYPVQVTNKKKQVFSKIFYSEDDGKTWKFGKGRSDFGCSEPVALEWEGKLIINTRVDWKRRLVYESSDMEKPWVEAVGTVSRVWGPSPKSNQPGSQSSFTAVTIEGMRVMLFTHPLNFKGRWLRDRLNLWLTDNQRIYNVGQVSIGDENSAYSSVLYKDDKLYCLHEINTDEVYSLVFARLVGELRIIKSVLRSWKNWDSHLSSICTPADPAASSSESGCGPAVTTVGLVGFLSGNASQNVWEDAYRCVNASTANAERVRNGLKFAGVGGGALWPVSQQGQNQRYRFANHAFTLVASVTIHEAPRAASPLLGASLDSSGGKKLLGLSYDEKHQWQPIYGSTPVTPTGSWETGKRYHLVLTMANKI
**Q.** With B1 as the molecule, how does the toxicity [1] read?
**A.** non-toxic

**Q.** What about the “expression of anti-inflammatory TSG-6 in the heart and liver” value ([2]; CCC mice, IV) of the same molecule?
**A.** increased expression; also recorded: restored TSG-6 transcript to levels seen in acutely infected mice

**Q.** And the “transcripts of cardiac inflammatory and fibrogenic markers” value ([2]; CCC mice, IV)?
**A.** global decrease

**Q.** And the “IFN-λ transcript values reduced” value ([2]; hearts of infected (CCC) mice, FIG. 5A)?
**A.** 3 fold

**Q.** What about the “CD4 transcript values reduced” value [2, 5] of the same molecule?
**A.** 1.5 fold

**Q.** What about the “CD8 transcript values reduced” value [2, 5] of the same molecule?
**A.** 15 fold

**Q.** And the “cardiac inflammation (CD8 lymphocyte infiltrates, pro-inflammatory cytokines such as tumor necrosis factor-α)” value ([2]; model of chronic Chagas disease, intravenous)?
**A.** reduced

**Q.** What about the “expression of COX-2” value [3] of the same molecule?
**A.** increased expression

**Q.** And the “expression of IL1-Ra” value [3]?
**A.** increased expression

**Q.** What about the “expression of TSG-6” value [3] of the same molecule?
**A.** increased expression

**Q.** And the “cardiac Sca-1+ cells” value [4]?
**A.** expanded
